Assay results published in publication PMC8831504.

Molecular target: cpNanoLuc α-amylase biosensor (VHH-cpNanoLuc-VHH fusion)
Test: luminescence titration of a single-component biosensor; 1 nM biosensor in 200 μl 20 mM Tris-HCl pH 7.2, 100 mM NaCl with 0.25 μl furimazine stock, titrated with its protein ligand; preincubated 15 min at room temperature; luminescence 445-470 nm; fit to a quadratic binding equation

Sequence of cpNanoLuc α-amylase biosensor (VHH-cpNanoLuc-VHH fusion) (main, as listed by the source): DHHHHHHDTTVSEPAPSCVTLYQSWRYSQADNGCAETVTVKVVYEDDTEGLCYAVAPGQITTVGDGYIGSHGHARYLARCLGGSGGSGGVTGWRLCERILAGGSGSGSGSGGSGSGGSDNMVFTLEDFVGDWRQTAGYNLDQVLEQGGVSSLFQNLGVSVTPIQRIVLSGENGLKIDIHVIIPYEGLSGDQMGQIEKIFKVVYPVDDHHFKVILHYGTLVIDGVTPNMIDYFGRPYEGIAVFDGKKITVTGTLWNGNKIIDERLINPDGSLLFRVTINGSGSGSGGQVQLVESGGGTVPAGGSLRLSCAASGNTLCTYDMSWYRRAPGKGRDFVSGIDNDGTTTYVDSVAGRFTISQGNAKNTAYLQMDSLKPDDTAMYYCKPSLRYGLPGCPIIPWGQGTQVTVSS

B1: human α-amylase (enzyme)
chain: QYSSNTQQGRTSIVHLFEWRWVDIALECERYLAPKGFGGVQVSPPNENVAIHNPFRPWWERYQPVSYKLCTRSGNEDEFRNMVTRCNNVGVRIYVDAVINHMCGNAVSAGTSSTCGSYFNPGSRDFPAVPYSGWDFNDGKCKTGSGDIENYNDATQVRDCRLSGLLDLALGKDYVRSKIAEYMNHLIDIGVAGFRIDASKHMWPGDIKAILDKLHNLNSNWFPEGSKPFIYQEVIDLGGEPIKSSDYFGNGRVTEFKYGAKLGTVIRKWNGEKMSYLKNWGEGWGFMPSDRALVFVDNHDNQRGHGAGGASILTFWDARLYKMAVGFMLAHPYGFTRVMSSYRWPRYFENGKDVNDWVGPPNDNGVTKEVTINPDTTCGNDWVCEHRWRQIRNMVNFRNVVDGQPFTNWYDNGSNQVAFGRGNRGFIVFNNDDWTFSLTLQTGLPAGTYCDVISGDKINGNCTGIKIYVSDDGKAHFSISNSAEDPFIAIHAESKL
  Kd: 0.5 nM
